Data set [1] deals with HIV-1 nucleocapsid protein (NC) (HIV-1 NL4-3) (UniProt P12493). Briefly: ITC. Particulars: ITC: 10 mM Tris-HCl pH 7.0, 140 mM KCl, 10 mM NaCl, 5 mM MgCl2, 5 mM TCEP, 30 °C; NC (120-240 µM) titrated into RNA (0.6-4 µM).
In data set [2] the target is T1, HIV-1 nucleocapsid protein (NC) (HIV-1 NL4-3, UniProt P12493). Briefly: ITC; exothermic sites, n=2.8±0.3; ITC: 10 mM Tris-HCl pH 7.0, 140 mM KCl, 10 mM NaCl, 5 mM MgCl2, 5 mM TCEP, 30 °C; NC (120-240 µM) titrated into RNA (0.6-4 µM). The note with it: protein: recombinant; tags: none stated; hairpin, unpaired 5'-GA and AG-3' ends.
Data set [3] addresses T1, HIV-1 nucleocapsid protein (NC). Kind of data set: ITC; endothermic sites, n=2.3±0.2; ITC: 10 mM Tris-HCl pH 7.0, 140 mM KCl, 10 mM NaCl, 5 mM MgCl2, 5 mM TCEP, 30 °C; NC (120-240 µM) titrated into RNA (0.6-4 µM). Particulars: protein: recombinant; tags: none stated; hairpin, unpaired 5'-GA and AG-3' ends. On the technique in general: ITC needs no label: the signal is the heat of the interaction.

Data set [4] has the same target. Briefly: ITC; exothermic only, n=1.8±0.1; ITC: 10 mM Tris-HCl pH 7.0, 140 mM KCl, 10 mM NaCl, 5 mM MgCl2, 5 mM TCEP, 30 °C; NC (120-240 µM) titrated into RNA (0.6-4 µM). Particulars: protein: recombinant; tags: none stated; hairpin with single-stranded 3' GGAG region.
Data set [5] shares this target. Briefly: ITC; exothermic only, n=1.2±0.1; ITC: 10 mM Tris-HCl pH 7.0, 140 mM KCl, 10 mM NaCl, 5 mM MgCl2, 5 mM TCEP, 30 °C; NC (120-240 µM) titrated into RNA (0.6-4 µM). The note with it: protein: recombinant; tags: none stated; hairpin, blunt.
Data set [6] has the same target. Kind of data set: ITC; exothermic sites, n=6.6±0.2 per dimer; ITC: 10 mM Tris-HCl pH 7.0, 140 mM KCl, 10 mM NaCl, 5 mM MgCl2, 5 mM TCEP, 30 °C; NC (120-240 µM) titrated into RNA (0.6-4 µM). Particulars: protein: recombinant; tags: none stated; duplex dimer of 2 strands.
The target is the same in data set [7]. Briefly: ITC; exothermic only, n=1.2±0.3; ITC: 10 mM Tris-HCl pH 7.0, 140 mM KCl, 10 mM NaCl, 5 mM MgCl2, 5 mM TCEP, 30 °C; NC (120-240 µM) titrated into RNA (0.6-4 µM). Particulars: protein: recombinant; tags: none stated; hairpin, blunt.

For 5'-LΔPBS, the Kd in data set [1] amounted to 0.76 µM. Still for that read-out and setting: under 5'-L (5'-L344) stands 0.88 µM. Same read-out and setting: under TAR-PolyA stands 1.32 µM. On to GAUUUUGACUAGCGGAGGCUAGAAGGAGAG (structured_RNA) [ΨHP], for which the values for the equilibrium dissociation constant (Kd) in data set [2] and in data set [3] were 1.54 ± 0.24 µM and 0.026 ± 0.021 µM, respectively. For GACUAGCGGAGGCUAGAAGGAG (structured_RNA) [Ψ-fragment], the dissociation constant (Kd) in data set [4] stood at 0.45 ± 0.03 µM. As for GGACUAGCGGAGGCUAGUCC (structured_RNA) [Ψ-apical loop], the Kd in data set [5] is 0.32 ± 0.03 µM.

For the molecule GGCAGGACUCGGCUUGCUGAAGCGCGCACGGCAAGAGGCGAGGGGCC (structured_RNA) [DIS], the Kd in data set [6] is 0.34 ± 0.03 µM.

As to GGUUUUGACUAGCGGAGGCUAGAAGGAGCC (structured_RNA) [ΨHP-stable], the dissociation constant Kd in data set [7] worked out at 0.3 ± 0.15 µM.

What is called Kd is the equilibrium constant for the complex coming apart.

(Values after PMC7395439, “Identification of the initial nucleocapsid recognition element in the HIV-1 RNA packaging signal”.)
